In paper doi:10.1101/2024.05.10.593582:

Target: His6-Gp54^Bas11 (phage Bas11)
Test: ITC

His6-MBP-CapRel^SJ46 (natural protein)
Kd: 0.8 µM | stoichiometry N: 1
